The source of these data is publication PMC7261888, “Crystal Structure of Geranylgeranyl Pyrophosphate Synthase (CrtE) Involved in Cyanobacterial Terpenoid Biosynthesis” (Frontiers in Plant Science, 2020).

This data set concerns the molecule itself. The experiment in a line: SEC; HiLoad 16/60 Superdex 200 pg, 25 mM Tris-HCl pH 7.5, 500 mM NaCl, 4 °C, 1 mL/min; mass estimated from the elution volume.

B1: Synechococcus sp. PCC 7002 CrtE (geranylgeranyl pyrophosphate synthase) (enzyme, UniProt B1XJV9 1-302, looked up)
chain: MVVADAHTQGFSLAQYLQEQKTIVETALDQSLVITEPVTIYEAMRYSLLAGGKRLRPILCLAACEMLGGTAAMAMNTACALEMIHTMSLIHDDLPAMDNDDLRRGKPTNHKVYGEDIAILAGDALLSYAFEYVARTPDVPAERLLQVIVRLGQAVGAEGLVGGQVVDLESEGKTDVAVETLNFIHTHKTGALLEVCVTAGAILAGAKPEEVQLLSRYAQNIGLAFQIVDDILDITATAEELGKTAGKDLEAQKVTYPSLWGIEKSQAEAQKLVAEAIASLEPYGEKANPLKALAEYIVNRKN
notes: CrtE (type II geranylgeranyl pyrophosphate synthase) of Synechococcus sp; PCC 7002, gene crtE, locus SYNPCC7002_A1085; amplified from genomic DNA with primers from the ATG to the stop codon; predicted 302 residues; Expressed from pHUE as an N-terminal His-tagged ubiquitin fusion and freed by deubiquitinase; also called Syn7002 CrtE; Syn7002 GGPPS; source: E. coli BL21(DE3), purified (Ni-NTA, …)
Consider B1, for which the stoichiometry N (usually the number of molecules, sites or subunits per partner or assembly) was 2.
